For assay [1], the target named is human BTN3A as expressed on human cells (PBMC, Daudi, tumour cell lines, HUVEC, HEK293T WT) (human). As to the kind of experiment: cell-based or functional assay.
The target is the same in assay [2]. As to the kind of experiment: flow cytometry on human PBMCs. A general note: Flow cytometry measures light scatter and fluorescence of single cells or particles in a stream.
Assay [3] addresses cynomolgus BTN3A as expressed on cynomolgus PBMCs (cynomolgus monkey (Macaca fascicularis)). As to the kind of experiment: flow cytometry on cynomolgus PBMCs.
The target of assay [4] is human BTN3A as expressed on human cells (PBMC, Daudi, tumour cell lines, HUVEC, HEK293T WT) (human). As to the kind of experiment: flow cytometry on Daudi lymphoma cells.
Assay [5] addresses recombinant human BTN3A1-His (Sino Biological Cat. No. 15973-H08H) (human) (UniProt O00481). In words: SPR Biacore multi-cycle kinetics; antibody captured on Protein A, BTN3A1-His analyte, 1:1 fit. Background: SPR reads the build-up and loss of mass on a sensor chip optically.

Usually EC50 stands for the concentration at which the effect is half-maximal. As usually defined, the Kd is the equilibrium constant for the complex coming apart.

Sequence of recombinant human BTN3A1-His (Sino Biological Cat. No. 15973-H08H) (human) (O00481 30-254 limits assumed): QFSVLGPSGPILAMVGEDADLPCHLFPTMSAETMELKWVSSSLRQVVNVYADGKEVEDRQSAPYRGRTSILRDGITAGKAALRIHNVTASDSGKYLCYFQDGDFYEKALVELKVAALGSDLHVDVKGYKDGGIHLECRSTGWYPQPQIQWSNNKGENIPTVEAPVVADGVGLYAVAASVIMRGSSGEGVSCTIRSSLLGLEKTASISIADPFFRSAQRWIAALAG

With “Chimeric 20.1 (VH0/Vκ0) IgG4 (S241P, L248E) (antibody)”, in assay [1], the Functional assay (AML resistant) (γδT cell-based, EC50, µg/mL) was determined as 0.18 µg/mL; the Functional assay (AML sensitive) (γδT cell-based, EC50, µg/mL) is 0.05 µg/mL; the Functional assay (Daudi) (γδT cell-based, EC50, µg/mL) worked out at 0.02 µg/mL. The substance also had an EC50 in assay [2] of 3.02 µg/mL. Besides, the EC50 in assay [3] turned out to be 4.06 µg/mL. This substance gave an EC50 in assay [4] of 1.19 µg/mL. Moreover, in assay [5], the Kd was found to be 0.234 nM.

These data come from patent publication US20260242483A1.
